Source: patent US20150307625A1 (Bayer, published 2015)
Each block holds one molecule with its values, some of them ahead of it.

Key:
activated Factor VII = experiment: direct ELISA, FVIIa coated at 10 ug/ml, positive control antibody specific for the antigen, concentration not given
[1] = molecular target: activated Factor II (thrombin) (Homo sapiens (Human)) (UniProt P00734); experiment: direct ELISA, FIIa coated at 10 ug/ml, positive control antibody specific for the antigen, concentration not given
[2] = molecular target: T1, human activated Protein C (human, UniProt P04070 43-461); experiment: direct ELISA, hAPC coated at 1 ug/ml, positive control antibody specific for the antigen, concentration not given
activated Factor X = experiment: direct ELISA, FXa coated at 10 ug/ml, positive control antibody specific for the antigen, concentration not given
activated Factor IX = experiment: direct ELISA, FIXa coated at 5 ug/ml, positive control antibody specific for the antigen, concentration not given
[3] = molecular target: T2, mouse Protein C (zymogen) (mouse, UniProt P33587 42-460); experiment: direct ELISA, mPC coated at 10 ug/ml, positive control antibody specific for the antigen, concentration not given
T2 construct: mature; also called mouse PC
T2 sequence (looked up): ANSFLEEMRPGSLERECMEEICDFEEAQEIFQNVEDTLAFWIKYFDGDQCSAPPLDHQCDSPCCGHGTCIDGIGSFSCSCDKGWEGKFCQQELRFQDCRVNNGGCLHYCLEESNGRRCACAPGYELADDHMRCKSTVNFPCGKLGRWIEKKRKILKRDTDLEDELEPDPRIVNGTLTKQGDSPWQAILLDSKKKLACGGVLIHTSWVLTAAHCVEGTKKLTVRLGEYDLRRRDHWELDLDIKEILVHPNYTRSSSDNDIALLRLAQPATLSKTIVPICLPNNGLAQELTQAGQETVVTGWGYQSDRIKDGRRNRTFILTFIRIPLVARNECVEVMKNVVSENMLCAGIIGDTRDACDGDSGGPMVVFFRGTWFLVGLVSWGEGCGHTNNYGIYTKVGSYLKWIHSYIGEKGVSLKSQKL

dog Protein C (zymogen) [4] = molecular target: T3, dog Protein C (zymogen) (dog, UniProt Q28278 43-456); experiment: direct ELISA, dPC coated at 10 ug/ml, positive control antibody specific for the antigen, concentration not given
T3 construct: mature; also called dog PC
T3 sequence (looked up): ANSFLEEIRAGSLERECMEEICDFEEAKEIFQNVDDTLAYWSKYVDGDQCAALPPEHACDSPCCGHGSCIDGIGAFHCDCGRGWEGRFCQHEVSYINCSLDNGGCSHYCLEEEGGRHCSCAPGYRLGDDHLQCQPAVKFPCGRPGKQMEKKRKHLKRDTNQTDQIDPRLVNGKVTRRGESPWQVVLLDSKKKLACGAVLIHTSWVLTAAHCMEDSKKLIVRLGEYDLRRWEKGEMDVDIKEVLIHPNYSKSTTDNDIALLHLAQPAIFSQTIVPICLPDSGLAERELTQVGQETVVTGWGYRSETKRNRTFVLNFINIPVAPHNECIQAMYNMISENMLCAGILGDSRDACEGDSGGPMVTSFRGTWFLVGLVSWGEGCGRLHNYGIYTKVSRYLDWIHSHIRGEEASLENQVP

[5] = molecular target: T1, human activated Protein C; experiment: direct ELISA, aPC coated, hIgG1
[6] = molecular target: T1, human activated Protein C; experiment: ELISA titration, IgG against Fab
dog activated Protein C [7] = molecular target: T4, dog activated Protein C (dog, UniProt Q28278 43-456); experiment: direct ELISA, antigen coated at 1 ug/ml, IgG at 20 nM, anti-human IgG-HRP, AmplexRed (RFU)
T4 construct: mature; also called dog aPC; dAPC
T4 sequence (looked up): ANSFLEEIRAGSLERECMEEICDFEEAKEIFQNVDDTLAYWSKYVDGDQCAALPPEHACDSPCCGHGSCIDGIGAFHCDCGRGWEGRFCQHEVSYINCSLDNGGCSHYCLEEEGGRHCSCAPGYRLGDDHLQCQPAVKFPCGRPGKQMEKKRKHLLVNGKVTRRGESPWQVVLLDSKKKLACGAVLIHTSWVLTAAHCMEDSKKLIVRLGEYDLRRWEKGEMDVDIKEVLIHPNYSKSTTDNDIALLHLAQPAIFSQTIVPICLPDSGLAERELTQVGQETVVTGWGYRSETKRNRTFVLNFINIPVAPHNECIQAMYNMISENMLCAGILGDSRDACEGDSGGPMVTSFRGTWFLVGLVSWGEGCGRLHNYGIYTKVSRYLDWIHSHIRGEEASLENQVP

[8] = molecular target: T1, human activated Protein C; experiment: cell-based or functional assay
[9] = molecular target: T1, human activated Protein C; experiment: Biacore, Fab
[10] = molecular target: T1, human activated Protein C; experiment: ELISA titration
[11] = molecular target: T1, human activated Protein C; experiment: direct ELISA, antigen coated, Fab
dog activated Protein C [12] = molecular target: T4, dog activated Protein C; experiment: direct ELISA, antigen coated at 100 ng/well, Fab at 20 nM (1 ug/ml), anti-human Fab-HRP, AmplexRed (RFU)
Procedure: (§1) FIG. 3 depicts a graph characterizing anti-APC Fabs by direct ELISA. An ELISA plate was coated with human PC (hPC), human aPC (hAPC), dog aPC (dAPC), mouse aPC (mAPC) at 100 ng per well. Purified Fabs designate on the X-axis were added to the plate at 20 nM (1 ug/ml). Bound Fab was detected by the secondary antibody (anti-human Fab-HRP) followed by HRP substrate AmplexRed. The purified Fabs preferentially bind to human aPC and, with the exception of Fab R41C17, show little to no binding to human PC.
(§2) Antigens were coated directly on ELISA plates. Coating antigens included human PC (plasma-derived), human aPC (recombinant), dog aPC (plasma-derived), and mouse aPC (recombinant) at 100 ng/well in PBS/Ca buffer. After blocking the plate with 5% milk/PBS and washing the plate with PBS-Tween20, soluble Fabs (1 ug/ml, 20 nM) were added to the plate and incubated for 1 h at RT with shaking. Fab binding was detected with anti-human Fab (lambda) antibody-HRP and Amplex red as substrate. […] In contrast, R41C17 binds to both human APC and human PC. Also shown in FIG. 3 is cross-species reactivity of Fabs by ELISA.

[13] = molecular target: T5, human Protein C (zymogen) (human, UniProt P04070 43-461); experiment: as above
T5 construct: also called human PC; hPC
Procedure: as §1, §2

[14] = molecular target: T2, mouse Protein C (zymogen); experiment: direct ELISA, mPC coated at 10 ug/ml, Fab at 20 nM, anti-human Fab-HRP, AmplexRed (RFU)
Procedure: (§3) To determine the binding selectivity of these fabs, their binding activities to the proenzyme human PC, to thrombin (FIIa), and to the activated Factor II (FIIa, thrombin), Factor VII (FVIIa), Factor IX (FIXa), and Factor X (FXa) were also assessed by ELISA. Briefly, an ELISA plate was coated with human aPC at 1 ug/ml, mouse PC at 10 ug/ml, dog PC at 10 ug/ml, other coagulation factors (FIIa, FVIIa, FIXa, FXa) at 5-10 ug/ml. Anti-aPC Fabs were added to the wells at 20 nM (1 ug/ml). Bound Fabs were detected by the secondary antibody (anti-human Fab-HRP) followed by HRP substrate AmplexRed.

dog Protein C (zymogen) [15] = molecular target: T3, dog Protein C (zymogen); experiment: direct ELISA, dPC coated at 10 ug/ml, Fab at 20 nM, anti-human Fab-HRP, AmplexRed (RFU)
Procedure: as §3

dog activated Protein C [16] = molecular target: T4, dog activated Protein C; experiment: direct ELISA, aPC coated, hIgG1
[17] = molecular target: mouse activated Protein C (mouse) (UniProt P33587); experiment: direct ELISA, hIgG1
dog Protein C (zymogen) [18] = molecular target: T3, dog Protein C (zymogen); experiment: direct ELISA, antigen coated
[19] = molecular target: rabbit activated Protein C (rabbit) (UniProt Q28661); experiment: ELISA, hIgG1
[20] = molecular target: T1, human activated Protein C; experiment: cell-based or functional assay; remark: listed apart in the source
[21] = molecular target: rabbit activated Protein C (rabbit) (UniProt Q28661); experiment: cell-based or functional assay
[22] = molecular target: T1, human activated Protein C; experiment: ELISA, hIgG1
dog activated Protein C [23] = molecular target: T4, dog activated Protein C; experiment: ELISA, hIgG1
[24] = molecular target: T1, human activated Protein C; experiment: cell-based or functional assay; remark: listed apart in the source
dog activated Protein C [25] = molecular target: T4, dog activated Protein C; experiment: cell-based or functional assay
[26] = molecular target: mouse activated Protein C (mouse) (UniProt P33587); experiment: direct ELISA, aPC coated, hIgG1
[27] = molecular target: rabbit activated Protein C (rabbit) (UniProt Q28661); experiment: direct ELISA, aPC coated, hIgG1
dog activated Protein C [28] = molecular target: T4, dog activated Protein C; experiment: ELISA and Biacore, as the sentence says
dog activated Protein C [29] = molecular target: T4, dog activated Protein C; experiment: Biacore, Fab
dog activated Protein C [30] = molecular target: T4, dog activated Protein C; experiment: direct ELISA, antigen coated, Fab

Chain of activated Factor X (P00742 41-179, chain 1 of 2): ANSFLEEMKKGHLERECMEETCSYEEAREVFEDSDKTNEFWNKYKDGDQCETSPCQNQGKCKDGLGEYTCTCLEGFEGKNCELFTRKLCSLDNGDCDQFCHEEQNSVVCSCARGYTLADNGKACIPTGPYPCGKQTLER
Chain of activated Factor X (P00742 235-488, chain 2 of 2): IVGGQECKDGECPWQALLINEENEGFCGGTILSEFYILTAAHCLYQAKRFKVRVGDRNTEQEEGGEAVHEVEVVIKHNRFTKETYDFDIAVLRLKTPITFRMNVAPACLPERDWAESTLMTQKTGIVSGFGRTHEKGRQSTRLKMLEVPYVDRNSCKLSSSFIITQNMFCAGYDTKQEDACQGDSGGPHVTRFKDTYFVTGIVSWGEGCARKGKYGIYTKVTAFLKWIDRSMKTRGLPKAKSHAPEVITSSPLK
Chain of activated Factor VII (P08709 61-212, chain 1 of 2): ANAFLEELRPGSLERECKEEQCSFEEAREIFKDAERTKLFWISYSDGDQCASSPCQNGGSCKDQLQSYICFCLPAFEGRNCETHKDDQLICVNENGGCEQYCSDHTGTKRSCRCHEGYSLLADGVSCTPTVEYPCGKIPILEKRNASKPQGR
Chain of activated Factor VII (P08709 213-466, chain 2 of 2): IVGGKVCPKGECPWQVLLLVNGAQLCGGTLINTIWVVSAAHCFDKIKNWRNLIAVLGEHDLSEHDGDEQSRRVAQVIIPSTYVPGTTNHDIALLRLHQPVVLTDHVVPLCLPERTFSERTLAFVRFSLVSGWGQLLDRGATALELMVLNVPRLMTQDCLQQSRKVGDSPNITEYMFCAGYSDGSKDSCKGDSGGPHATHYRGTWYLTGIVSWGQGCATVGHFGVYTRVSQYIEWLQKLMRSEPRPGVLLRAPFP

B1: R41E3 hIgG1 (antibody, V domains shown)
VH: EVQLLESGGGLVQPGGSLRLSCAASGFTFNNYAMTWVRQAPGKGLEWVSGVSWNGSRTHYADSVKGRFTISRDNSKNTLYLQMNSLRAEDTAVYYCARADSSSAGRWAGSLDYWGQGTLVTVTS
VL: LTQPPSASGTPGQRVTISCSGSSSNIGNNAVNWYQQLPGTAPKLLIYSNNQRPSGVPDRFSGSKSGTSASLAISGLRSEDEADYYCSSYTSSSTHVVFGGGTKLTVLG
notes: also called R41E3-IgG
EC50 [5]: 1.76 nM
fold increase of binding affinity against the corresponding Fab [6]: ~50 fold
binding result (dog activated Protein C [7]): no binding (tested: 20 nM)
aPTT, inhibition of aPC activity at 163-fold molar excess [8]: ~80%

B2: R41E3 Fab (Fab, V domains shown)
VH: B1 VH
VL: B1 VL
notes: Human Fab (lambda), expressed in E. coli
Kd [9]: 11 nM
EC50 [10]: 104 nM
EC50 [11]: 10.4 nM
binding result (dog activated Protein C [12]): no binding (tested: 20 nM)
binding result [13]: no binding (tested: 20 nM)
binding result [14]: no binding (tested: 20 nM)
binding result (dog Protein C (zymogen) [15]): no binding (tested: 20 nM)

B4: T46J23 Fab (Fab, V domains shown)
VH: EVQLLESGGGLVQPGGSLRLSCAASGFTFGNHWMTWVRQAPGKGLEWVSGVSWNGSRTHYADSVKGRFTISRDNSKNTLYLQMNSLRAEDTAVYYCALTGRSGWMRFPNWFDPWGQGTLVTVTS
VL: LTQPPSASGTPGQRVTISCTGTSSNIGAGYDVHWYQQLPGTAPKLLIYDNNNRPSGVPDRFSGSKSGTSASLAISGLRSEDEADYYCAAWDDSLNGVVFGGGTKLTVLG
notes: as for B2
Kd (dog activated Protein C [28]): 22 nM
Kd [9]: 4.1 nM
Kd (dog activated Protein C [29]): 21 nM
EC50 [11]: 6.7 nM
EC50 (dog activated Protein C [30]): 16.6 nM
binding result (dog Protein C (zymogen) [15]): no binding (tested: 20 nM)

Further lines, results first:

RFU (activated Factor VII): 10300 RFU
RFU [1]: 6050 RFU
RFU [2]: 11700 RFU
RFU (activated Factor X): 6460 RFU
RFU (activated Factor IX): 7370 RFU
RFU [3]: 331 RFU
RFU (dog Protein C (zymogen) [4]): 476 RFU
Molecule: control Ab (specific for each antigen) (antibody)

EC50 [5]: 2.18 nM
EC50 (dog activated Protein C [16]): 1.68 nM
EC50 [17]: 6 nM
binding result (dog Protein C (zymogen) [18]): no binding
EC50 [19]: 1.7 nM
IC50 (read off the curve), amidolytic activity of human aPC [b] [20]: ~8 nM
Anti-aPC IC50 (nM), Amidolytic activity [21]: 17 nM
EC50 [22]: 2.2 nM
EC50 (dog activated Protein C [23]): 1.7 nM
Anti-aPC IC50 (nM), Amidolytic activity [24]: 18 nM
Anti-aPC IC50 (nM), Amidolytic activity (dog activated Protein C [25]): 625 nM
EC50 [26]: 4.6 nM
EC50 [27]: 7 nM
aPTT, inhibition of aPC activity at 1 ug/ml IgG (1:1 molar ratio) [8]: ~50%
B3: T46J23-hIgG1 (antibody, V domains shown)
VH: B4 VH
VL: B4 VL
notes: also called T46J23-IgG
